Assay results taken from PMC9482650, “Quantitative fragmentomics allow affinity mapping of interactomes” (Nature Communications, 2022).
Each block holds one binder with its values, some of them ahead of it.

Tests used:
Test in all cases: holdup assay
Parameters in all cases: key: below the threshold = too weak to quantify, mostly under pKd 3.1 to 4
NHERF3_4, Q5T2W1 = target: T1, NHERF3_4, Q5T2W1
T1 sequence (Q5T2W1 373-468, limits assumed, looked up): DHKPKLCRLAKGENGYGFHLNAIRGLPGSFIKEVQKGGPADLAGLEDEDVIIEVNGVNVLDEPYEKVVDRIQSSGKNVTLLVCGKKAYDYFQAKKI

TJP2_1, Q9UDY2 = target: TJP2_1, Q9UDY2
SNX27, Q96L92 = target: SNX27, Q96L92
LAP2, Q96RT1 = target: LAP2, Q96RT1
PDLIM1, O00151 = target: PDLIM1, O00151
MPDZ_10, O75970 = target: T2, MPDZ_10, O75970
T2 sequence (O75970 1624-1722, limits assumed, looked up): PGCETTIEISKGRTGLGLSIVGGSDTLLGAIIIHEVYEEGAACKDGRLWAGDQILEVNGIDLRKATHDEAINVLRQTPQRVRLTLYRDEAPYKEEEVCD

NHERF2_2, Q15599 = target: NHERF2_2, Q15599
DLG3_1, Q92796 = target: T3, DLG3_1, Q92796
T3 sequence (Q92796 125-227, limits assumed, looked up): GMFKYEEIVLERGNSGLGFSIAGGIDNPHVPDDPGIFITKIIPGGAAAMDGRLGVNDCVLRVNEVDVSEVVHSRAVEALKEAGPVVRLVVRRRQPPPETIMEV

LIN7B, Q9HAP6 = target: T4, LIN7B, Q9HAP6
T4 sequence (Q9HAP6 88-185, limits assumed, looked up): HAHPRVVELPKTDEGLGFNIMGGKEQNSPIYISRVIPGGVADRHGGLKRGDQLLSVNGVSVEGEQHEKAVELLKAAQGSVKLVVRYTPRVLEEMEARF

DLG3_2, Q92796 = target: T5, DLG3_2, Q92796
T5 sequence (Q92796 221-321, limits assumed, looked up): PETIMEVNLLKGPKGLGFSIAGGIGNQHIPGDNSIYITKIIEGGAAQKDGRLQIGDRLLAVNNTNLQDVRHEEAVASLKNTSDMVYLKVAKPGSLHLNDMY

SIPA1L2, Q9P2F8 = target: T6, SIPA1L2, Q9P2F8
T6 sequence (Q9P2F8 945-1036, limits assumed, looked up): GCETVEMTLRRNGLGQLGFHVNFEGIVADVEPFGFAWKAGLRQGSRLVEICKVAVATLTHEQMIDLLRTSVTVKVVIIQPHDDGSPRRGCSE

PDZD2_2, O15018 = target: T7, PDZD2_2, O15018
T7 sequence (O15018 329-429, limits assumed, looked up): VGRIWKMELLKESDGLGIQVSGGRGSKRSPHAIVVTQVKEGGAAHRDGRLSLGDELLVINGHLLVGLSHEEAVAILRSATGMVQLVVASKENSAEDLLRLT

APBA1_1, Q02410 = target: T8, APBA1_1, Q02410
T8 sequence (Q02410 651-752, limits assumed, looked up): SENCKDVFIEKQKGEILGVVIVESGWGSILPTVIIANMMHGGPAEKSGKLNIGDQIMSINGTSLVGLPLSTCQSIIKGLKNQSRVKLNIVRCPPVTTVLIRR

Inadl_10, Q8NI35 = target: Inadl_10, Q8NI35
NHERF4_1, Q86UT5-2 = target: NHERF4_1, Q86UT5-2
Inadl_1, Q8NI35 = target: Inadl_1, Q8NI35
GRIP1_5, Q9Y3R0 = target: T9, GRIP1_5, Q9Y3R0
T9 sequence (Q9Y3R0 568-668, limits assumed, looked up): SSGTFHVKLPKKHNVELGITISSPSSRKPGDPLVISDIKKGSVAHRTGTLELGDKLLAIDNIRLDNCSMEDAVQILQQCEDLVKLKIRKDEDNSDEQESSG

NHERF4_4, Q86UT5 = target: NHERF4_4, Q86UT5
NHERF3_1, Q5T2W1 = target: T10, NHERF3_1, Q5T2W1
T10 sequence (Q5T2W1 4-100, limits assumed, looked up): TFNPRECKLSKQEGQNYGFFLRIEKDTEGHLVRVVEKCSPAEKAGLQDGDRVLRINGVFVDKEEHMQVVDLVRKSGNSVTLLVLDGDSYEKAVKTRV

PTPN3, P26045 = target: PTPN3, P26045
MPDZ_5, O75970 = target: T11, MPDZ_5, O75970
T11 sequence (O75970 695-796, limits assumed, looked up): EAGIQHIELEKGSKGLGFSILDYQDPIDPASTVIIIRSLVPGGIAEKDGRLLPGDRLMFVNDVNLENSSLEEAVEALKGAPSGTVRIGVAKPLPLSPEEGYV

PICK1, Q9NRD5 = target: PICK1, Q9NRD5
FRMPD3, Q5JV73 = target: FRMPD3, Q5JV73
DLG1_2, Q12959 = target: DLG1_2, Q12959
FRMPD2_1, Q68DX3 = target: FRMPD2_1, Q68DX3
TJP1_3, Q07157 = target: TJP1_3, Q07157
MAGI2_6, Q86UL8 = target: MAGI2_6, Q86UL8
[1] = plain residues with an end cap or a label only (N-terminal biotin on a linker: ado-ado)
[2] = plain residues with an end cap or a label only (N-terminal biotin on a linker: ahx)

Sequence of NHERF4_1, Q86UT5-2 (Q86UT5 other isoform, or with tags, fused parts or gaps): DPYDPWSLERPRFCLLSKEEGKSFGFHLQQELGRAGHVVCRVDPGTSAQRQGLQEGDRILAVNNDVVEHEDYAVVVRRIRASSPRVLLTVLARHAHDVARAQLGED
Sequence of TJP1_3, Q07157 (Q07157 416-512): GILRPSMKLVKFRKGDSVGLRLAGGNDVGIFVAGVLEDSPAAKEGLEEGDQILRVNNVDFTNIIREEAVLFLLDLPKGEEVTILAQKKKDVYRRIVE
Sequence of NHERF4_4, Q86UT5 (Q86UT5 464-550): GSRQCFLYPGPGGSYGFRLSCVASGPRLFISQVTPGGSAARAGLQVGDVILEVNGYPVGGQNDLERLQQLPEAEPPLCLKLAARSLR
Sequence of LAP2, Q96RT1 (Q96RT1 other isoform, or with tags, fused parts or gaps): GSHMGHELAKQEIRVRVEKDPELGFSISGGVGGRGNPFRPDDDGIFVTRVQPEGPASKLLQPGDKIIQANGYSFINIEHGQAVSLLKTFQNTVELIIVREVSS
Sequence of FRMPD3, Q5JV73 (Q5JV73 12-100): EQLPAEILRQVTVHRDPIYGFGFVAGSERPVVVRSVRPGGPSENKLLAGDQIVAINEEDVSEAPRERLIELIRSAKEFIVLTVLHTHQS
Sequence of PICK1, Q9NRD5 (Q9NRD5 17-115): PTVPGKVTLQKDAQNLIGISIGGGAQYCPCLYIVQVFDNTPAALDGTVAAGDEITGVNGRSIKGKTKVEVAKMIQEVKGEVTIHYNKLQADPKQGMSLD
Sequence of TJP2_1, Q9UDY2 (Q9UDY2 24-128): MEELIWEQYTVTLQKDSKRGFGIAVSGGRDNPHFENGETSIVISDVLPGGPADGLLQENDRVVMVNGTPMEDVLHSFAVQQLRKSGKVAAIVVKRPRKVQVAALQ
Sequence of Inadl_10, Q8NI35 (Q8NI35 1673-1763): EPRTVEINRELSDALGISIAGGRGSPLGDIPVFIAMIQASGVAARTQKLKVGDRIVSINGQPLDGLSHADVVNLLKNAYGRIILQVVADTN
Sequence of DLG1_2, Q12959 (Q12959 314-412): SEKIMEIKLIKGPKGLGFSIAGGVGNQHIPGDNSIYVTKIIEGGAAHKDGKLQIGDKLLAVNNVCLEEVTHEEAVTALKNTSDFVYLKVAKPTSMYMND
Sequence of MAGI2_6, Q86UL8 (Q86UL8 1141-1229): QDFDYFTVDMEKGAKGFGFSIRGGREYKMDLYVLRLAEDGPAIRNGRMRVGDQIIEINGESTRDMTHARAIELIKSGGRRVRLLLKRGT
Sequence of FRMPD2_1, Q68DX3 (Q68DX3 770-861): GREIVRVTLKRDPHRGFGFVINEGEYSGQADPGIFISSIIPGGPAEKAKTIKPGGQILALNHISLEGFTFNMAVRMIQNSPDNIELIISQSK
Sequence of PTPN3, P26045 (P26045 505-587): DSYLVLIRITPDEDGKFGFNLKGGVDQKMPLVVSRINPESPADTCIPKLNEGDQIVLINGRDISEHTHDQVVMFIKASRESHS
Sequence of Inadl_1, Q8NI35 (Q8NI35 113-229): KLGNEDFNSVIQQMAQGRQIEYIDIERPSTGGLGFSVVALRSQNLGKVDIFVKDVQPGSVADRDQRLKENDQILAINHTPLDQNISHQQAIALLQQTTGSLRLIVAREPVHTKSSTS
Sequence of NHERF2_2, Q15599 (Q15599 142-238): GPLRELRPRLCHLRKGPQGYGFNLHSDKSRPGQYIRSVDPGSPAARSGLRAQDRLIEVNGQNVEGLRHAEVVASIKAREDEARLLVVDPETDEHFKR
Sequence of PDLIM1, O00151 (O00151 1-87): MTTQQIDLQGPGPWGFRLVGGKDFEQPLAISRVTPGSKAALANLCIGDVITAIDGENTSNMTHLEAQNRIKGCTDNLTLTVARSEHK

pKd (NHERF3_4, Q5T2W1; [1]): below the threshold
pKd (TJP2_1, Q9UDY2; [1]): below the threshold
pKd (SNX27, Q96L92; [1]): 5.73
pKd (LAP2, Q96RT1; [1]): 4.56
pKd (PDLIM1, O00151; [1]): below the threshold
pKd (MPDZ_10, O75970; [1]): below the threshold
pKd (NHERF2_2, Q15599; [1]): 4.12
pKd (DLG3_1, Q92796; [1]): 4.09
pKd (LIN7B, Q9HAP6; [1]): 4.11
pKd (DLG3_2, Q92796; [1]): 4.8
pKd (SIPA1L2, Q9P2F8; [1]): below the threshold
pKd (PDZD2_2, O15018; [1]): 5.25
pKd (APBA1_1, Q02410; [1]): below the threshold
pKd (Inadl_10, Q8NI35; [1]): below the threshold
pKd (NHERF4_1, Q86UT5-2; [1]): below the threshold
pKd (Inadl_1, Q8NI35; [1]): below the threshold
pKd (GRIP1_5, Q9Y3R0; [1]): below the threshold
pKd (NHERF4_4, Q86UT5; [1]): below the threshold
pKd (NHERF3_1, Q5T2W1; [1]): 4.75
pKd (PTPN3, P26045; [1]): 5.02
pKd (MPDZ_5, O75970; [1]): below the threshold
pKd (PICK1, Q9NRD5; [1]): below the threshold
pKd (FRMPD3, Q5JV73; [1]): below the threshold
pKd (DLG1_2, Q12959; [1]): 5.11
pKd (FRMPD2_1, Q68DX3; [1]): below the threshold
pKd (TJP1_3, Q07157; [1]): below the threshold
pKd (MAGI2_6, Q86UL8; [1]): 4.59
Binder: IGHEDLETAV [DGKI, O75912]

pKd (NHERF3_4, Q5T2W1; [2]): below the threshold
pKd (TJP2_1, Q9UDY2; [2]): below the threshold
pKd (SNX27, Q96L92; [2]): 3.96
pKd (LAP2, Q96RT1; [2]): below the threshold
pKd (PDLIM1, O00151; [2]): 3.72
pKd (MPDZ_10, O75970; [2]): 3.81
pKd (NHERF2_2, Q15599; [2]): below the threshold
pKd (DLG3_1, Q92796; [2]): 3.9
pKd (LIN7B, Q9HAP6; [2]): below the threshold
pKd (DLG3_2, Q92796; [2]): 4.72
pKd (SIPA1L2, Q9P2F8; [2]): below the threshold
pKd (PDZD2_2, O15018; [2]): 4.23
pKd (APBA1_1, Q02410; [2]): below the threshold
pKd (Inadl_10, Q8NI35; [2]): 3.62
pKd (NHERF4_1, Q86UT5-2; [2]): below the threshold
pKd (Inadl_1, Q8NI35; [2]): below the threshold
pKd (GRIP1_5, Q9Y3R0; [2]): below the threshold
pKd (NHERF4_4, Q86UT5; [2]): below the threshold
pKd (NHERF3_1, Q5T2W1; [2]): below the threshold
pKd (PTPN3, P26045; [2]): 4.16
pKd (MPDZ_5, O75970; [2]): below the threshold
pKd (PICK1, Q9NRD5; [2]): below the threshold
pKd (FRMPD3, Q5JV73; [2]): below the threshold
pKd (DLG1_2, Q12959; [2]): 4.9
pKd (FRMPD2_1, Q68DX3; [2]): below the threshold
pKd (TJP1_3, Q07157; [2]): below the threshold
pKd (MAGI2_6, Q86UL8; [2]): 3.66
Binder: HSATSVHTSV [MTMR1, Q13613]
